Where a chain is given by its changes, count along the chain named. Each block holds one binder with its values, some of them ahead of it.
Columns and labels:
[1] = molecular target: Unstimulated Cyno CD8 T cells (cynomolgus monkey); assay: FACS cell binding; CD8 T cells; avid
[2] = molecular target: Unstimulated Cyno CD3+ cells (cynomolgus monkey); assay: FACS cell binding; CD3+ cells; avid
[3] = molecular target: Unstimulated Cyno CD4 T cells (cynomolgus monkey); assay: FACS cell binding; CD4 T cells; avid
[4] = molecular target: T1, His-tagged human CD5 antigen (human, UniProt P06127 25-372); assay: Octet
T1 chain: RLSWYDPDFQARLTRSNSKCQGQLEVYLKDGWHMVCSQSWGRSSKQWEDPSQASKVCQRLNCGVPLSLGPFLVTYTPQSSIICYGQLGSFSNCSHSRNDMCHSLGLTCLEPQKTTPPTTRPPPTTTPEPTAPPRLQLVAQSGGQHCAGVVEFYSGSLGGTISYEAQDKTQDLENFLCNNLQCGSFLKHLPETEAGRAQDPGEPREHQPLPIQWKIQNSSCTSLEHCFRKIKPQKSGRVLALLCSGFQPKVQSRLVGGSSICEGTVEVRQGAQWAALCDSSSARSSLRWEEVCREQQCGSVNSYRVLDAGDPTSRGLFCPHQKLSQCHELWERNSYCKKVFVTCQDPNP

[5] = molecular target: human TGFßRII (antigen of the Octet experiments) (human, UniProt P37173 23-166)
Cyno = Cyno (cynomolgus monkey); assay: Octet
[6] = molecular target: αCD5 (Clone 4) x αTGFßRII; assay: Octet
[7] = molecular target: αCD5 (Clone 7) x αTGFßRII; assay: Octet
[8] = molecular target: αCD5 (Clone 6) x αTGFßRII; assay: Octet
[9] = molecular target: αCD5 (Clone 3) x αTGFßRII; assay: Octet
[10] = molecular target: αCD5 (Clone 5) x αTGFßRII; assay: Octet
[11] = molecular target: αCD5 (Clone 11) x αTGFßRII; assay: Octet
[12] = molecular target: αCD5 (Clone 9) x αTGFßRII; assay: Octet
[13] = molecular target: αCD5 (Clone 1) x αTGFßRII; assay: Octet
[14] = molecular target: αCD5 (Clone 8) x αTGFßRII; assay: Octet
[15] = molecular target: αCD5 (Clone 10) x αTGFßRII; assay: Octet

human TGFßRII (antigen of the Octet experiments), sequence (P37173 23-166): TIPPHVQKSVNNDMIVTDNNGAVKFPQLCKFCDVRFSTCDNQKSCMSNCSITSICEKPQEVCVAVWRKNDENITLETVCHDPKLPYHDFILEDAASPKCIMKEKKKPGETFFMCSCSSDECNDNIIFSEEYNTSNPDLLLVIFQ

EC50 [1]: 0.415 µg/mL
EC50 [2]: 0.508 µg/mL
EC50 [3]: 0.584 µg/mL
B1: XENP35401 anti-CD5 clone 5D7 Bivalent (antibody, V domains shown)
VH: EVQLVESGGGVVQPGRSLRLSCTFSGFSLSTSGMGVGWIRQAPGKGLEWVAHIWWDDDVYYNPSLKSRLTITKDASTDTVYMELSSLRSEDTAVYYCVRRRATGTGFDYWGQGTLVTVSS
VL: NIVMTQSPSSLSASVGDRVTITCQASQDVGTAVAWYQQKPDQSPKLLIYWTSTRHTGVPDRFTGSGSGTDFTLTISSLQPEDIATYFCHQYNSYNTFGSGTKLEIKR

Kd [4]: 2.75 nM
B2: XENP37388 (bispecific antibody)
heavy: QVTLKESGAELVRPGASVKLSCKASGYSFTSYWMNWVKQRPGQGLEWIGMIHPSDSETRLNQKFKDKATLTVDKSSSTAYMQLSSPTSEDSAVYYCARWGDHDDAMDFWGQGTMVTVSSASTKGPSVFPLAPSSKSTSGGTAALGCLVKDYFPEPVTVSWNSGALTSGVHTFPAVLQSSGLYSLSSVVTVPSSSLGTQTYICNVNHKPSDTKVDKKVEPKSCDKTHTCPPCPAPPVAGPSVFLFPPKPKDTLMISRTPEVTCVVVDVKHEDPEVKFNWYVDGVEVHNAKTKPREEEYNSTYRVVSVLTVLHQDWLNGKEYKCKVSNKALPAPIEKTISKAKGQPREPQVYTLPPSREEMTKNQVSLTCDVSGFYPSDIAVEWESDGQPENNYKTTPPVLDSDGSFFLYSKLTVDKSRWEQGDVFSCSVMHEALHNHYTQKSLSLSPGK
scFv-Fc: QLQVQESGPGLVKPSETLSLTCTVSGGSISNSYFSWGWIRQPPGKGLEWIGSFYYGEKTYYNPSLKSRATISIDTSKSQFSLKLSSVTAADTAVYYCPRGPTVIRGVIDSWGQGTLVTVSSGKPGSGKPGSGKPGSGKPGSEIVLTQSPATLSLSPGERATLSCRASQSVRSYLAWYQQKPGQAPRLLIYDASNRATGIPARFSGSGSGTDFTLTISSLEPEDFAVYYCQQRSNWPPTFGQGTKVEIKEPKSSDKTHTCPPCPAPPVAGPSVFLFPPKPKDTLMISRTPEVTCVVVDVKHEDPEVKFNWYVDGVEVHNAKTKPREEQYNSTYRVVSVLTVLHQDWLNGKEYKCKVSNKALPAPIEKTISKAKGQPREPQVYTLPPSREQMTKNQVKLTCLVKGFYPSDIAVEWESNGQPENNYKTTPPVLDSDGSFFLYSKLTVDKSRWQQGNVFSCSVMHEALHNHYTQKSLSLSPGK
light: DIVLTQSPASLSASVGESVTITCRPSENIYGYFAWYQQRQGKSPQLLVYNAKTLAEGVPSRFSGSGSGTHFSLKINSLQPEDFGTYYCQHHYGTPFTFGPGTKVDIKRTVAAPSVFIFPPSDEQLKSGTASVVCLLNNFYPREAKVQWKVDNALQSGNSQESVTEQDSKDSTYSLSSTLTLSKADYEKHKVYACEVTHQGLSSPVTKSFNRGEC

Kd [5]: 6.1 nM
B3: XENP36132 (bispecific antibody)
heavy: EVQLVESGGGVVQPGRSLRLSCTFSGFSLSTSGMGVGWIRQAPGKGLEWVAHIWWDDDVYYNPSLKSRLTITKDASTDTVYMELSSLRSEDTAVYYCVRRRATGTGFDYWGQGTLVTVSSASTKGPSVFPLAPSSKSTSGGTAALGCLVKDYFPEPVTVSWNSGALTSGVHTFPAVLQSSGLYSLSSVVTVPSSSLGTQTYICNVNHKPSDTKVDKKVEPKSCDKTHTCPPCPAPPVAGPSVFLFPPKPKDTLMISRTPEVTCVVVDVKHEDPEVKFNWYVDGVEVHNAKTKPREEEYNSTYRVVSVLTVLHQDWLNGKEYKCKVSNKALPAPIEKTISKAKGQPREPQVYTLPPSREEMTKNQVSLTCDVSGFYPSDIAVEWESDGQPENNYKTTPPVLDSDGSFFLYSKLTVDKSRWEQGDVFSCSVMHEALHNHYTQKSLSLSPGK
scFv-Fc: B2 scFv-Fc with S35Y, V103M
light: NIVMTQSPSSLSASVGDRVTITCQASQDVGTAVAWYQQKPDQSPKLLIYWTSTRHTGVPDRFTGSGSGTDFTLTISSLQPEDIATYFCHQYNSYNTFGSGTKLEIKRTVAAPSVFIFPPSDEQLKSGTASVVCLLNNFYPREAKVQWKVDNALQSGNSQESVTEQDSKDSTYSLSSTLTLSKADYEKHKVYACEVTHQGLSSPVTKSFNRGEC

Kd (Cyno): 72 nM
B4: XENP35399 – αCD5 (5D7) x αTGFßRII (bispecific antibody)
heavy: B3 heavy
scFv-Fc: B2 scFv-Fc
light: B3 light

Kd [4]: 1.69 nM
Kd [5]: 0.97 nM
B5: XENP35399 (bispecific antibody)
heavy: B3 heavy
scFv-Fc: B2 scFv-Fc
light: B3 light

Kd [4]: 6.67 nM
B6: XENP37385 (bispecific antibody)
heavy: EVQLKESGAELVRPGGSVKISCKGSGYTFTNFAIHWVKQSHIKTLEWIGLISTSSGDVSYNQKFKDKATMTVDKSSSTAYMELARLTSEDSAIYYCARHYGANNYFDYWGQGTLVTVSSASTKGPSVFPLAPSSKSTSGGTAALGCLVKDYFPEPVTVSWNSGALTSGVHTFPAVLQSSGLYSLSSVVTVPSSSLGTQTYICNVNHKPSDTKVDKKVEPKSCDKTHTCPPCPAPPVAGPSVFLFPPKPKDTLMISRTPEVTCVVVDVKHEDPEVKFNWYVDGVEVHNAKTKPREEEYNSTYRVVSVLTVLHQDWLNGKEYKCKVSNKALPAPIEKTISKAKGQPREPQVYTLPPSREEMTKNQVSLTCDVSGFYPSDIAVEWESDGQPENNYKTTPPVLDSDGSFFLYSKLTVDKSRWEQGDVFSCSVMHEALHNHYTQKSLSLSPGK
scFv-Fc: B2 scFv-Fc
light: EIVLTQSPTIMSASPGEQVTMTCRTNSSVSSSYLHWYQQKSGASPKLWIYGTSNLASGVPTRFSGSGSGTSYSLTISSVEAGDAATYFCQQYSGYPLTFGGGTKVEIKRTVAAPSVFIFPPSDEQLKSGTASVVCLLNNFYPREAKVQWKVDNALQSGNSQESVTEQDSKDSTYSLSSTLTLSKADYEKHKVYACEVTHQGLSSPVTKSFNRGEC

Kd [6]: 7.03 nM
Kd [7]: 2.05 nM
Kd [8]: 11.1 nM
Kd [9]: 1.53 nM
Kd [10]: 12.9 nM
Kd [11]: 18.6 nM
Kd [12]: 2.99 nM
Kd [13]: 7.91 nM
Kd [14]: 8.72 nM
Kd [15]: 1.24 nM
B7: Human (receptor)
chain: T1 chain
